Variants at the floor of the assay were thinned out.
B1: TPR 5TU (parent)
chain: GGAUCUUCUCGAUCUAACAAAAAAGACAAAUCUGCCACAAAGCUUGAGAGCAUCUUCGGAUGCAGAGGCGGCAGCCUUCGGUGGCGCGAUAGCGCCAACGUUCUCAACUAUGACACGCAAAACGCGUGCUCCGUUGAAUGGAGUUUAUCAUG

Variants of: B1
Experiment: polymerase ribozyme fitness, log enrichment relative to wild type (log ratio); higher = more active; in vitro selection for triplet polymerase activity
How it was run: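 A heterodimeric triplet polymerase ribozyme had each of its subunits mutagenized by PCR into a library, which was transcribed. One round of in vitro selection, done in triplicate, annealed each library with a biotinylated primer, its partner subunit and triplets, then incubated it frozen at −7 °C before gel excision of extended constructs, streptavidin-bead capture and RT-PCR. Fitness is the logarithm of genotype enrichment relative to wild-type enrichment, based on Illumina sequencing of inputs and outputs and inverse-variance-weighted replicate averages. A base-2 logarithm is used, and genotypes were kept only with ≥10 input reads and ≥1 read per output.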

**Q.** With U6A U55G as the variant, how does the “polymerase ribozyme fitness (log ratio)” value read?
**A.** The value was -0.118.

**Q.** With U6A C85U as the variant, how does the “polymerase ribozyme fitness (log ratio)” value read?
**A.** The value was -0.519.

**Q.** Which “polymerase ribozyme fitness (log ratio)” value does the source give for U6G C10G C14A A49C C85A C93U C116U here?
**A.** Its value is ≤ -4.2.

**Q.** For U6A G11A A64C C72U C87U A120G C149A, which “polymerase ribozyme fitness (log ratio)” value is on record?
**A.** Its value is ≤ -4.2.

**Q.** With U6G U9C A12C U45A C76G A91C C96G as the variant, how does the “polymerase ribozyme fitness (log ratio)” value read?
**A.** The value was ≤ -4.2.

**Q.** For U6G G68A, which “polymerase ribozyme fitness (log ratio)” value is on record?
**A.** Its value is -3.62.

**Q.** Which “polymerase ribozyme fitness (log ratio)” value does the source give for U6G A29G here?
**A.** The value was -3.97.

**Q.** Which “polymerase ribozyme fitness (log ratio)” value does the source give for U6G U78A G84U A91C C108A A121C here?
**A.** Its value is ≤ -4.2.

**Q.** With U7C A20C A89G C96A U111C C118U as the variant, how does the “polymerase ribozyme fitness (log ratio)” value read?
**A.** The value was ≤ -4.2.

**Q.** Which “polymerase ribozyme fitness (log ratio)” value does the source give for U6G A16C A22U C51U C76U C85A C118U here?
**A.** Its value is -3.97.

**Q.** For U7C A21C A24C G62C C76A G133C, which “polymerase ribozyme fitness (log ratio)” value is on record?
**A.** Its value is ≤ -4.2.

**Q.** With U6G A60C C85A C96U G124U as the variant, how does the “polymerase ribozyme fitness (log ratio)” value read?
**A.** Its value is -4.11.

**Q.** For U6A G34A C69U A73G U77A C79A C87A C96U C105A A107U G136A U139A, which “polymerase ribozyme fitness (log ratio)” value is on record?
**A.** Its value is ≤ -4.2.

**Q.** With U7C C18U U31A G81A G84U as the variant, how does the “polymerase ribozyme fitness (log ratio)” value read?
**A.** Its value is -3.99.

**Q.** For U6G A47C C87A, which “polymerase ribozyme fitness (log ratio)” value is on record?
**A.** Its value is ≤ -4.2.

**Q.** Which “polymerase ribozyme fitness (log ratio)” value does the source give for U7A C14A A23C C75G C85U here?
**A.** Its value is ≤ -4.2.

**Q.** Which “polymerase ribozyme fitness (log ratio)” value does the source give for U7A A24C G50U A52U C87G here?
**A.** Its value is ≤ -4.2.

**Q.** For U6A A24U G81U C85G G140U, which “polymerase ribozyme fitness (log ratio)” value is on record?
**A.** The value was ≤ -4.2.

**Q.** Which “polymerase ribozyme fitness (log ratio)” value does the source give for U7A A26U C27U A41U U55G C93U here?
**A.** Its value is ≤ -4.2.

**Q.** Which “polymerase ribozyme fitness (log ratio)” value does the source give for U6G U7C U55A U135A here?
**A.** Its value is -4.01.

**Q.** Which “polymerase ribozyme fitness (log ratio)” value does the source give for U6A C79A G86U A89C C103G here?
**A.** Its value is ≤ -4.2.

**Q.** For U7A A119G A120C, which “polymerase ribozyme fitness (log ratio)” value is on record?
**A.** The value was -3.25.

**Q.** For U6G G86U G152U, which “polymerase ribozyme fitness (log ratio)” value is on record?
**A.** The value was -4.12.

**Q.** For U6C A60U G86A, which “polymerase ribozyme fitness (log ratio)” value is on record?
**A.** The value was -3.49.

**Q.** Which “polymerase ribozyme fitness (log ratio)” value does the source give for U6G C93A here?
**A.** Its value is -1.75.

**Q.** For U6G C93G, which “polymerase ribozyme fitness (log ratio)” value is on record?
**A.** The value was -3.18.

**Q.** For U7A A28U G46C G50A C95G C103G C129A U144C, which “polymerase ribozyme fitness (log ratio)” value is on record?
**A.** Its value is ≤ -4.2.

**Q.** For U6C U55G C132A A138G, which “polymerase ribozyme fitness (log ratio)” value is on record?
**A.** The value was ≤ -4.2.

**Q.** Which “polymerase ribozyme fitness (log ratio)” value does the source give for U6G A37C C51G G74C A98U C103A C118A G128U U135C U146C G152A here?
**A.** The value was ≤ -4.2.

**Q.** For U6C A47G G59C G92U C99A C118G, which “polymerase ribozyme fitness (log ratio)” value is on record?
**A.** Its value is -3.32.

**Q.** For U6A G88C C116U, which “polymerase ribozyme fitness (log ratio)” value is on record?
**A.** Its value is ≤ -4.2.

**Q.** Which “polymerase ribozyme fitness (log ratio)” value does the source give for U6A C38G G42C G86U C93U U127A here?
**A.** The value was ≤ -4.2.

**Q.** With U6G G128U as the variant, how does the “polymerase ribozyme fitness (log ratio)” value read?
**A.** The value was -3.77.

**Q.** With U6A A22U G59U A73U U109G as the variant, how does the “polymerase ribozyme fitness (log ratio)” value read?
**A.** Its value is -3.52.

**Q.** With U6C A24U A40C U56A A73U C76G C129U as the variant, how does the “polymerase ribozyme fitness (log ratio)” value read?
**A.** Its value is ≤ -4.2.

**Q.** Which “polymerase ribozyme fitness (log ratio)” value does the source give for U6C C38A G59U C69A here?
**A.** Its value is -2.2.

**Q.** Which “polymerase ribozyme fitness (log ratio)” value does the source give for U6G C75G U90A G92U here?
**A.** Its value is ≤ -4.2.

**Q.** Which “polymerase ribozyme fitness (log ratio)” value does the source give for U6A C14A C32U G74A A138C here?
**A.** The value was ≤ -4.2.

**Q.** Which “polymerase ribozyme fitness (log ratio)” value does the source give for U6A C54U G58C C85A U134C here?
**A.** Its value is -1.4.

**Q.** Which “polymerase ribozyme fitness (log ratio)” value does the source give for U6A C54A C95G A98U here?
**A.** The value was -2.26.

**Q.** For U6G A120G, which “polymerase ribozyme fitness (log ratio)” value is on record?
**A.** Its value is -0.399.

**Q.** For U6G A28G G58U C85U, which “polymerase ribozyme fitness (log ratio)” value is on record?
**A.** Its value is ≤ -4.2.

**Q.** With U6G A73C C99U as the variant, how does the “polymerase ribozyme fitness (log ratio)” value read?
**A.** The value was ≤ -4.2.

**Q.** For U6A C35A C63U C69U C76A G83C, which “polymerase ribozyme fitness (log ratio)” value is on record?
**A.** The value was ≤ -4.2.

**Q.** For U6C A20C A28C A37U G42U G71A C85U C99G A106G C131G, which “polymerase ribozyme fitness (log ratio)” value is on record?
**A.** The value was ≤ -4.2.

**Q.** With U6A C57G A64G C76U C87A as the variant, how does the “polymerase ribozyme fitness (log ratio)” value read?
**A.** The value was ≤ -4.2.

**Q.** For U6A C8G A60C G62A C85A C103A, which “polymerase ribozyme fitness (log ratio)” value is on record?
**A.** The value was ≤ -4.2.

**Q.** Which “polymerase ribozyme fitness (log ratio)” value does the source give for U6G A12U A20U C51A C96A G100U C118A U148C here?
**A.** Its value is ≤ -4.2.

**Q.** With U7A U44A as the variant, how does the “polymerase ribozyme fitness (log ratio)” value read?
**A.** The value was ≤ -4.2.

**Q.** For U7A U9A A21U U55A G59A C99G C129U A147C, which “polymerase ribozyme fitness (log ratio)” value is on record?
**A.** Its value is ≤ -4.2.

**Q.** With U6A A23C G68U G100U C131U G143U as the variant, how does the “polymerase ribozyme fitness (log ratio)” value read?
**A.** The value was ≤ -4.2.

**Q.** With U6G A49C C51U G88A A107U A142G as the variant, how does the “polymerase ribozyme fitness (log ratio)” value read?
**A.** Its value is ≤ -4.2.

**Q.** Which “polymerase ribozyme fitness (log ratio)” value does the source give for U6G G50C here?
**A.** The value was -3.07.

**Q.** With U7A C76U G94A C105U U151A as the variant, how does the “polymerase ribozyme fitness (log ratio)” value read?
**A.** Its value is -3.84.

**Q.** Which “polymerase ribozyme fitness (log ratio)” value does the source give for U6C G48A A106G here?
**A.** Its value is -3.13.

**Q.** Which “polymerase ribozyme fitness (log ratio)” value does the source give for U6G here?
**A.** Its value is 0.0167.

**Q.** With U6C as the variant, how does the “polymerase ribozyme fitness (log ratio)” value read?
**A.** The value was -0.0891.

**Q.** For U7A A22G C72A A122U C131A, which “polymerase ribozyme fitness (log ratio)” value is on record?
**A.** Its value is ≤ -4.2.

**Q.** Which “polymerase ribozyme fitness (log ratio)” value does the source give for U6C C105G U144C G152A here?
**A.** The value was -3.94.

**Q.** For U6G C35U G58C C96U A113C U135C A147U, which “polymerase ribozyme fitness (log ratio)” value is on record?
**A.** Its value is ≤ -4.2.

**Q.** For U6G G59C C85U G92U U127A, which “polymerase ribozyme fitness (log ratio)” value is on record?
**A.** Its value is ≤ -4.2.

**Q.** Which “polymerase ribozyme fitness (log ratio)” value does the source give for U6A A22G C125U here?
**A.** Its value is -0.424.

**Q.** With U7A G25A G50U G84U as the variant, how does the “polymerase ribozyme fitness (log ratio)” value read?
**A.** The value was ≤ -4.2.

**Q.** Which “polymerase ribozyme fitness (log ratio)” value does the source give for U6G A19G A30U A119G here?
**A.** Its value is ≤ -4.2.

**Q.** Which “polymerase ribozyme fitness (log ratio)” value does the source give for U7A A26C U31A G34C G70U U78G G117A C118U A119C here?
**A.** The value was ≤ -4.2.

**Q.** Which “polymerase ribozyme fitness (log ratio)” value does the source give for U6G A121U here?
**A.** Its value is -0.506.

**Q.** With U7A U55A as the variant, how does the “polymerase ribozyme fitness (log ratio)” value read?
**A.** Its value is -3.25.

**Q.** For U6A G68A G83C U90G C118U, which “polymerase ribozyme fitness (log ratio)” value is on record?
**A.** The value was ≤ -4.2.

**Q.** With U6G C14U as the variant, how does the “polymerase ribozyme fitness (log ratio)” value read?
**A.** The value was -1.09.

**Q.** For U7A A23C G50U G59A A73C G86U C95G C108U, which “polymerase ribozyme fitness (log ratio)” value is on record?
**A.** The value was ≤ -4.2.

**Q.** With U6A C69G G84U U145C as the variant, how does the “polymerase ribozyme fitness (log ratio)” value read?
**A.** The value was -1.67.

**Q.** For U6C C87A, which “polymerase ribozyme fitness (log ratio)” value is on record?
**A.** Its value is ≤ -4.2.

**Q.** With U6C C87U as the variant, how does the “polymerase ribozyme fitness (log ratio)” value read?
**A.** Its value is -1.52.

**Q.** For U6A C69A G92U A98G U111C G152C, which “polymerase ribozyme fitness (log ratio)” value is on record?
**A.** The value was ≤ -4.2.

**Q.** With U6G G59C as the variant, how does the “polymerase ribozyme fitness (log ratio)” value read?
**A.** Its value is 0.358.

**Q.** Which “polymerase ribozyme fitness (log ratio)” value does the source give for U7A C10A C14U C32G C36A U53G U55G U61A G67C U82G C87G C96U C103G here?
**A.** Its value is ≤ -4.2.

**Q.** For U6G U31G U61A C95A G136A, which “polymerase ribozyme fitness (log ratio)” value is on record?
**A.** The value was -1.38.

**Q.** With U6G A20U A73U U134C U145G as the variant, how does the “polymerase ribozyme fitness (log ratio)” value read?
**A.** Its value is -3.22.

**Q.** With U6G A73U as the variant, how does the “polymerase ribozyme fitness (log ratio)” value read?
**A.** Its value is -0.322.

**Q.** With U6C G11C A16C G58C A142C as the variant, how does the “polymerase ribozyme fitness (log ratio)” value read?
**A.** Its value is -3.7.

**Q.** For U6A C87A A137C, which “polymerase ribozyme fitness (log ratio)” value is on record?
**A.** The value was ≤ -4.2.

**Q.** For U7A C14U U31A C57G U61A A89U U90C C99A A115U A122C, which “polymerase ribozyme fitness (log ratio)” value is on record?
**A.** Its value is ≤ -4.2.

**Q.** Which “polymerase ribozyme fitness (log ratio)” value does the source give for U6A C18G U56A A106G here?
**A.** Its value is -0.358.

Reference: the RNAGym collection of RNA variant scans (doi:10.1073/pnas.2313332121)
